Results: patent US20240219403

Target: T1, NF1 GAP-related domain (GRD) (UniProt P21359)
T1 sequence: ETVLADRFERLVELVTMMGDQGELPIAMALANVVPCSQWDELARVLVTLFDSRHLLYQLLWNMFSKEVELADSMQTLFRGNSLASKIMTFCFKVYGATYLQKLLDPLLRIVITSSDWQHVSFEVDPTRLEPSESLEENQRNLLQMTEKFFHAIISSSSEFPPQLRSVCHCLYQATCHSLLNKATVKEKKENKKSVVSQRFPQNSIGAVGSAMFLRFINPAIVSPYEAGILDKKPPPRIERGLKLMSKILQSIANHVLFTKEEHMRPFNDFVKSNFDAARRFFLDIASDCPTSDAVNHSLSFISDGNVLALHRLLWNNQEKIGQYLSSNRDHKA

## purified KRAS^WT loaded with GTP
  GTP hydrolysis by KRAS^WT: conventional RAS-GAPs (such as NF1), which potently enhance hydrolysis by KRAS^WT (FIG. 3B: NF1>>RGS3)
